# Values of other authors, collected in patent US6329011A, “Antimicrobial agent against acid-resistant and heat-resistant bacteria” (Director General of Shikoku National Agricultural …, priority 2000, dated 2001).
# How the values were obtained:
# [1] = heated under acidic conditions at 100° C. for 10 min.
# guinea pigs = conditions: one oral administration, 103 to 229 mg/kg body weight, observation for 7 days
substance,measurement,setting,value
thionin,antimicrobial activity after heating,[1],does not lose antimicrobial activity
same,degradation by digestive enzymes such as trypsin,trypsin,degraded rapidly
same,abnormalities after oral administration,guinea pigs,did not result in detection of any abnormalities
